Reference: publication PMC8248988, “A signal capture and proofreading mechanism for the KDEL-receptor explains selectivity and dynamic range in ER retrieval” (eLife, 2021)
Ends that are not written are not given here.

T1: TAEHDEL retrieval signal peptide
T1 chain: TAEHDEL

T2: TAEHDEL-CONH retrieval signal peptide
T2 chain: TAEHDEL-NH2

T3: TAERDEL retrieval signal peptide
T3 chain: TAERDEL

T4: TAEDDEL retrieval signal peptide
T4 chain: TAEDDEL

T5: TAEKDEL retrieval signal peptide (BiP) (Homo sapiens)
T5 chain: TAEKDEL

B1: KDEL receptor 2 (protein)
chain: MNIFRLTGDLSHLAAIIILLLKIWKSRSCAGISGKSQLLFALVFTTRYLDLFTSFISLYNTSMKLIYIACSYATVYLIYMKFKATYDGNHDTFRVEFLIVPVGGLSFLVNHDFSPLEILWTFSIYLESVAILPQLFMISKTGEAETITTHYLFFLGLYRALYLVNWIWRYYFEGFFDLIAVVAGVVQTVLYCDFFYLYVTKVLKGKKLSLPA

Experiments:
[1] = target: TAEHDEL retrieval-signal peptide (unlabelled) K to H at position -4 relative to TAEKDEL (K651H in human BiP numbering) (UniProt P11021); assay: radioligand filter-binding assay, competition of unlabelled peptide against [3H]-TAEHDEL; details: pH 5.4; 20°C; 40 mM Sodium Chloride; 20 mM MES pH 5.4 (default assay buffer 'unless stated otherwise'; pH not restated for this experiment)
[2] = target: TAERDEL retrieval-signal peptide (unlabelled) K to R at position -4 relative to TAEKDEL (K651R in human BiP numbering) (UniProt P11021); assay: as above; details: pH 5.4; 20°C; 40 mM Sodium Chloride; 20 mM MES pH 5.4 (default assay buffer 'unless stated otherwise'; pH not restated for this experiment)
[3] = target: TAEKDEL retrieval-signal peptide (unlabelled) (UniProt P11021); assay: as above; details: pH 5.4; 20°C; 40 mM Sodium Chloride; 20 mM MES pH 5.4 (default assay buffer 'unless stated otherwise'; pH not restated for this experiment)
[4] = target: [3H]-TAEKDEL retrieval-signal peptide (UniProt P11021); assay: in vitro binding assay of Bräuer et al. 2019 (not described here; presumably the same [3H]-TAEKDEL filter-binding assay); details: pH 6.4; cited from earlier work
[5] = target: [3H]-TAEKDEL retrieval-signal peptide (UniProt P11021); assay: radioligand filter-binding assay, direct titration (scintillation counting); details: pH 5.4; 20°C; 40 mM Sodium Chloride; 20 mM MES pH 5.4 (default); the buffers used for the other pH values of Figure 3f (up to pH 7.0) are not stated
[6] = target: [3H]-TAEHDEL retrieval-signal peptide K to H at position -4 relative to TAEKDEL (K651H in human BiP numbering) (UniProt P11021); assay: as above; details: 20°C, 40 mM Sodium Chloride, 20 mM MES pH 5.4 (default), the buffers used for the other pH values of Figure 3f (up to pH 7.0) are not stated
[7] = target: T1, TAEHDEL retrieval signal peptide; assay: competition binding with [3H]-TAEHDEL
[8] = target: T2, TAEHDEL-CONH retrieval signal peptide; assay: competition binding with [3H]-TAEHDEL
[9] = target: T3, TAERDEL retrieval signal peptide; assay: peptide binding assay
[10] = target: T4, TAEDDEL retrieval signal peptide; assay: peptide binding assay
[11] = target: T5, TAEKDEL retrieval signal peptide (BiP); assay: [3H]-peptide filter binding assay, pH 5.4
[12] = target: T1, TAEHDEL retrieval signal peptide; assay: [3H]-peptide filter binding assay, pH 5.4
[13] = target: T5, TAEKDEL retrieval signal peptide (BiP); assay: [3H]-peptide filter binding assay
[14] = target: T1, TAEHDEL retrieval signal peptide; assay: [3H]-peptide filter binding assay

Chain of [3H]-TAEKDEL retrieval-signal peptide (P11021 whole entry, looked up, tested part not stated): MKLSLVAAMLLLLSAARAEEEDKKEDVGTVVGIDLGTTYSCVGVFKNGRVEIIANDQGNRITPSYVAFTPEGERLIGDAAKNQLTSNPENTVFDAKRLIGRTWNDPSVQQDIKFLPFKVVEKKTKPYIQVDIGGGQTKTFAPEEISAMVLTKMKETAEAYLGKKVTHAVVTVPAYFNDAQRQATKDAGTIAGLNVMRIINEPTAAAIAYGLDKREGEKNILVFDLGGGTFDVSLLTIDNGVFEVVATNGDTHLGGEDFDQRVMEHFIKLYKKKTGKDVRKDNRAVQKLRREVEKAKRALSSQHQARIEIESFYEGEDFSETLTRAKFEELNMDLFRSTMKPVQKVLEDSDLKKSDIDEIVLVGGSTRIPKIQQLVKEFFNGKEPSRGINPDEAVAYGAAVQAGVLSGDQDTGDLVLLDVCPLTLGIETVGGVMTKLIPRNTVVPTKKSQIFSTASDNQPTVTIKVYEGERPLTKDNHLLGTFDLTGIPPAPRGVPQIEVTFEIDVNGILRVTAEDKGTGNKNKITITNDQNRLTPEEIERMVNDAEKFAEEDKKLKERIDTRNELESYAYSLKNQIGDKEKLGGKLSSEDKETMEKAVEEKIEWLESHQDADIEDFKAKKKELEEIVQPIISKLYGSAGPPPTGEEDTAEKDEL
Chain of [3H]-TAEHDEL retrieval-signal peptide K to H at position -4 relative to TAEKDEL (K651H in human BiP numbering) (P11021 whole entry K651H, looked up, tested part not stated): as the sequence (P11021 whole entry, looked up, tested part not stated) above, with K651H counted along it
Chain of TAEKDEL retrieval-signal peptide (unlabelled) (P11021 whole entry, looked up, tested part not stated): as the sequence (P11021 whole entry, looked up, tested part not stated) above
Chain of TAERDEL retrieval-signal peptide (unlabelled) K to R at position -4 relative to TAEKDEL (K651R in human BiP numbering) (P11021 whole entry K651R, looked up, tested part not stated): as the sequence (P11021 whole entry, looked up, tested part not stated) above, with K651R counted along it
Chain of TAEHDEL retrieval-signal peptide (unlabelled) K to H at position -4 relative to TAEKDEL (K651H in human BiP numbering) (P11021 whole entry K651H, looked up, tested part not stated): as the sequence (P11021 whole entry, looked up, tested part not stated) above, with K651H counted along it

Row | Molecule | KD (apparent, from IC50) [1] | KD (apparent, from IC50) [2] | KD (apparent, from IC50) [3] | fraction of maximal binding [4] [%] | KD [5] [µM] | KD ([6]; pH 5.4) [µM] | fraction of maximal binding ([6]; pH 6.4) | IC50 [7] [µM] | IC50 [8] [µM] | Kd [9] [µM] | Kd [10] [µM] | Kd [11] [µM] | Kd [12] [µM] | Kd [13] [µM] | Kd [14] [µM]
1 | KDEL receptor 2 (KDELR2, ER lumen protein-retaining receptor 2), wild type | KD 0.24 µM | KD 2.71 µM | KD 1.94 µM | <20 | 1.9 ± 0.46 | 0.26 ± 0.04 | ~ 60% maximal binding | – | – | – | – | – | – | – | –
2 | B1 | – | – | – | – | – | – | – | 19 | 1700 | 2.71 | 14.9 | 1.9 | 0.26 | 1.94 | 0.24
